This is an account of results in a protein production outcome set (Wang et al. 2014).

The data set is described as follows: label from the status in PepcDB records.
On to “MAFLDKIKSAVIAEWHTHKILPSLTAAQAILESGWGKYAPHNALFGIKADSSWTGKSFNTKTQEEYQPGIVTDIVDRFRAYDSWEDSIADHGQFLVDNPRYKAVIGEADYKKACHAIKDAGYATASGYAELLIQLIEENNLQEWDAEAIKNKEEQMISSQCREVIEFFINLANAGVGVDKDSFAGWQCADVPCYAAKHWFGVDLWGNAIDLLDSAAAVGWEVHRMPTDANPRTGAFFVQSVPCHQFGHTGIVIEDSDGYTMRTVEQNIDGNPDALYVGAPARFNTRDFTGVLGWFYPPYQGDIVTQPVSTEPQNSDTIVETPKTGTFTLDVAEINIRRWPSLASEVVGSYKQGDTVSFDSEGYANGYYWISYVGGLGMRNYLAIGQTDKDGNRISIWGKLN”, for which the protein production entry was “failed”.

On to “MSRMETSRTLSAFPKIISVDDHTVEPPDVWRDRLPKKYQDTGPRIVRAPLKEMTFLGGKFAPVMGGPGDDGPLGDWWVYEDLHRPLTRLDTAVGYSRDEIKLEVITYEQMRPGSYDVPRRLADMDVNHVQSALCFPTFPRFCGQTFTEAKDRELGLLGVRAYNDWMVEEWCGPDAHGRLIPLTLVPLWDARLAAAEVRRNAARGVRAVAFSEIPPHLGLPSVHTDDWDPFLAACDETGTVIAMHIGSSSRMPSTSADAPPAVGSTITFANCCFSMVDWLMSGKFERFPNLRVMYAEGQIGWIPYILERADVVWEENRGWGGVADKVHRPPSELFAGHVFGCFFDDAFGLRNLDAIGIGNVLYETDYPHSDSTWPKSREVGEAQMGHLEAEVVERIVRGNAIELLGLTDDGLWAGPGGAR”, for which the protein production result is listed as “failed”.

As for “MTTLEAFAKARSEGRAALIPYLTAGFPSREGFLQAVEEVLPYADLLEIGLPYSDPLGDGPVIQRASELALRKGMSVQGALELVREVRALTEKPLFLMTYLNPVLAWGPERFFGLFKQAGATGVILPDLPPDEDPGLVRLAQEIGLETVFLLAPTSTDARIATVVRHATGFVYAVSVTGVTGMRERLPEEVKDLVRRIKARTALPVAVGFGVSGKATAAQAAVADGVVVGSALVRALEEGRSLAPLLQEIRQGLQRLEANPGLKESSKKPLP”, the protein production entry is reported as “not failed”.

Regarding “MKSVQEKRNNTRAFKTVAKSWFATKTTWSEDYQRSVWTRLETYLFPDIGNKDIAELDTGDLLVPIKKIEKLGYLEIAMRVKQYATAIMRYAVQQKMIRFNPAYDLEGAVQKLEHHHHHH”, the protein production result was “not failed”.

On to “MPSQDYLRVLNPSLSGPTPIAFIILALISAGLLIIIWRNRDLISTDNLRGKIIFIVISAALIFTFGRISFALSEVLIFLWALSILWIRGNTDNIEMNLAMAAWVLAYLYMHSFHPVKADRYIITVLPALAYAISLSLNNLSALMRSRRASTVLSIAVTLLMVSSAIHYTAGWPQEYGIVKGERSGAWLMNHDPSYRDRVIAADRGPAFTWYLGDYVFTRIIHPQRRELSLKYFYEVNPDYYIFWTGKTELPEGYRVIYSRDGVPLPGRFSRYAGILPLRYRIQWMLR”, for which the protein production result is reported as “failed”.

Take “MTDSTTELTPAAPVSWPDGKTCAVAFTFDVDAESPLLTTDPAFADRMGTMSHQAYGPLVGVPRLLGILDEFNVPGTFFVPGYTAHRHPEPIRSIARAGHEIAHHGYLHESLVGADEDTERKILTRGIEALEEVAGVHPVGYRAPMWEMNWHTPKLLAEFGFLYDSTLMDSDHPYELAVGDGSLVELPVSWALDDWQQYCFVPDFSGTGLIETPAKAIELWRAELNAMRDIGGAWVLTNHPFLSGRPGRAAALREFIAEVCAMDDVWVAGMSQIAEHVRAQKLTPRTLTRPELTPVAE”: the protein production result is “not failed”.

As to “MKVKLFAIHLFFIVISFGIKYYHLQGPNLIWNMTLALIALDFAYLTSLFKKKILIGLFALAWFFFYPNTFYMLTDIIHMHFVGDVLYNKTNLILYILYVSSILFGFLSGIESFSVIMRKFRISNIFLRWGIIGIVSLVSSFGIHIGRYARLNSWDILTKPQVVINELLAVPSRDSFHFILGFTFLQVLCLIFMDYSAGKKLEK”, the protein production result was “failed”.

“MESIWRIATGQDPSREDYEGIEFWSNPERSGWLTKQGDYIKTWRRRWFVLKRGKLLWFKDQAAAGIRGSTPRGVISVGDCLTVKGAEDVVNKPFAFELSSGSYTMFFIADNEKEKEEWINSIGRSIVQHSRSVTDSEVLDYDHRR”: the protein production result is recorded as “failed”.

In the case of “MGTVSKALSLLALFNHGRLEMGLSELTRLSGMNKATVYRMMTELQAAGFVEQMNGDRAYRLGPEVLRLAALREAAVPLLSVSRDVLRRLCDETGETSHMSIQRNGQLTTLTHAYSSHHGTRVAMEDAEILSLHATGSGLAFLAFSSEEVVEHALSAPLIKHTPQTETDPARLRQALAEAQQSGVAESVGGFEADVHSHAAPIFGADQRPIGALAVAAPVSRMTAELKSRVRAALKEAALDLTQRTGGFCPPGYPGAA”, the protein production entry was “failed”.

Regarding “MTSKSRPNRDLAGRLALAAQLALVLVLAAAPELALAQSTMPGQQLLTFAKNFIIAPIALFAIVISGVAAFIRPDLIKTTGYIAIIAVILYFLLANADRLMQAIRAG”, the protein production result was “failed”.

With “SSNYPRCWNCGGPWGPGREDRFFCPQCRALQAPDPTRDYFSLMDCNRSFRVDTAKLQHRYQQLQRLVHPDFFSQRSQTEKDFSEKHSTLVNDAYKTLLAPLSRGLYLLKLHGIEIPERTDYEMDRQFLIEIMEINEKLAEAESEAAMKEIESIVKAKQKEFTDNVSSAFEQDDFEEAKEILTKMRYFSNIEEKIKLKKIPL”, the protein production entry is on record as “failed”.

Turning to “MNIKINEKWREVKENCTVYALKNEEFPDSHVIVLNGFPLVEDKKLKDGDRIVFIKKGIMPNKEELEELMVSRHTPGIHEKLKRIKVLIAGCGGLGSNIAISLGRIGVGSISLVDFDIVEPSNLNRQQYYIEDIGEFKVTALKRNLIRINPFIKIEALNLKLSEDNMGILQGADIIIEAFDNPDYKALLANYVLGNMKDKFLISSSGMAGFYDSNLIKTKQITDKFYICGDLVNEAKEGCGLMAPRVAICANHMANLVIDIAINKIEFQK”, the protein production entry is “failed”.

In the case of “MPTIRINKLTDPVVFLHILFFLIIASSSLTYWKMSDYAVNQSWDAYFYKYSDYLDLVPTWEKILKDAFSLVLLLASIYFPRRKILDFSPNINLQRYYLSFILLFFLSLSNLFASRDVTNLTLFTIVAVIRPFLITASLLFFCHKHLNFFYFRIILECVNIIGIIQVYHSFLQRNSAIINNGLDWLHSGSARSVGTFADPNTLGRFLALLIMVNLFMLPPNIIRFFLIISYGIALFFTGSRASLLIIGIFILLFVAIKLSRQSIASTRAKNLTFAFLLTVPLLQFLLLRINLISNRADDTASPLQDGRYHILFNLINRLNPYEFIFGNYLGYGSNALILTGYDGSNFLSDSTPASLIGQFGITGLLLFILIVINLFKQTPRHININNSQDYLVLTGDLLQSRNALSFYLIISCFTTIIFESYAVIPILLGLIFYDNLDLKNIKF”, the protein production result is “failed”.

With “KDDDNVETGAFDPSKPVAISDFTPKEGGAYQKLLIYGENFGTDVSKVKVKIGGKDAIVINVKSTYVYCFVPSGAFSGEIEITVGEGENAVTTTASTTFSYEKKMVVGTLCGYRNNRDDQGWRDGPFDGPEGVKCCGFSDNGRLAFDPLNKDHLYICYDGHKAIQLIDLKNRMLSSPLNINTIPTNRIRSIAFNKKIEGYADEAEYMIVAIDYDGKGDESPSVYIIKRNADGTFDDRSDIQLIAAYKQCNGATIHPINGELYFNSYEKGQVFRLDLVDYFKTIKNGGSWDPIVKNNPNTFKQLFTIADPSWEFQIFIHPTGKYAYFGVINNHYFMRSDYDEIKKEFITPYNFVGGYKQSGYRDDVGTEARMNNPCQGVFVKNPDYTGEEEYDFYFVDRLNFCVRKVTPEGIVSTYAGRGASTSLADGNQWGTDDGDLREVARFRDVSGLVYDDVKEMFYVHDQVGHTIRTISMEQEENVAGDENIPEDESTVESNE”, the protein production entry is listed as “not failed”.

Turning to “MLDVAPPVITPRGTKIEPSAGAPFEAVRVARDVLHTSRTAALATLDPVSGYPYTTATNIGIEPDGTPFFFAAGLTLHARNMETDARISVTLAPFGKGDALTLPRLTLVGRADRIGPDEVPLAIARYIARYPKAKLYLSLPDTRLYRLRTEGVQINGGPARNASNITPADLRTDLSGAEELMAAAESEATRLNAIKGEASRLAVLAGAKTGRWKITSIDPDGIDLASASDLARLWFAERVETLKQFEKALAQLLK”, the protein production result was “not failed”.

As for “MSIQMATSNDLEWINNQYDSIGFVRSDLKRDKVAIITYNNEYAGIGRLVQIDEDTLEMGGILILPKFRGLQLAGELVSFLVETAKKLQVQHVYCLPFEELENFYKKYGYTEVDTTKEFVHPIILEKYNWCLDHYEKHVLLFKL”, the protein production result was “failed”.

“GTVSATSPNKCKRPMNAFMLFAKKYRVEYTQMYPGKDNRAISVILGDRWKKMKNEERRMYTLEAKALAEEQKRLNPDCWK”: the protein production result was “not failed”.

In the case of “FDKLGNSAAIQEMNREVEAAAKRTSPVFLTGEAGSPFETVARYFHKNGTPWVSPARVEYLIDMPMELLQKAEGGVLYVGDIAQYSRNIQTGITFIIGKAERCRVRVIASCSYAAGSDGISCEEKLAGLFSESVVRIPPLS”, the protein production result was “not failed”.

As for “MSRDLGRLLKIASNQMSTRFDIFAKKYDLTGTQMTIIDYLSRNKNKEVLQRDLESEFSIKSSTATVLLQRMEIKKLLYRKVSGKDSRQKCLKLTKKANKLETIILSYMDSDQSQMTSGLNKEEVVFLEKILKRMIESD”, the protein production result was “not failed”.

For the sequence “MEYVAFSVAVIILLGLLFNRVFTRARLPGILGMLILGILIGPHGLNLISKSIMDISPDLRVIALIIILLRAGFGINLESLRKVGMTAVKMSFIPDVFEGLAVMVASHYILGLPIIEAGILGFVIAAVSPAVIVPQMLSFIERRMGTAKGIPTIILTGASVDDVVSITLFSVFLGIYQGQQVNLLVEAIGVPLSILTGITGGLALGLALVYLFRRFEIRNTEKTLIILGAAILLKNMGDLISTYLPIAALVGVMVVGLVILERMPETGLKLSEKFNKVWIFAEILLFVLVGAQVDVRLIFHVGLLGLAVITAGLMVRSIGVLLSLKGTDLNLKEKVFCISAYIPKATVQAAIGAIPLAAGVAAGETILAMAVLAILFTAPLGSLAVKWTGERFLEVERGN”, the protein production result is “failed”.

As for “MNKFFLESERLIIRPLEESDYDSWYTSFMNRGPSLTPFDDGILDMSMCDINWFKNLVNLQRKEWESDIVYIFGVFLKSGEHVGMLNIVTLARADMQWGELGYVFHNQFWSNGYAFESILALLNSTYEKLGFHHIEAQITPGNERSEKLVRRLGLTYETTRKDFSFENGKWTDKLIYSINLHNNNLE”, the protein production result was “failed”.

Consider “STFYVEFNRKDSDKTLAKAFQNKKIRQALSLAINRKSYVNNTLGNGSTVSKGYVSEDLAKNPTTGKDFTTDAAVPSAVDYNLTKAKKLWKEGLKEIGETKLNIKLLSDDTDAGKKATEFIQGGWEKLPGLTVTNQNVPFKTRLQRSQNGNFDTVISAWNADFTDPISFLSLFTSDNSYNNGKYDSAAYDDAVKKAEGADANNKTARWADMVAAEKQLMNDQGVIPIYQQASATLTRSNLKGIIYNTAGSNYNFKYMSVK”, for which the protein production result is on record as “failed”.

For the sequence “MSTIFDIRNLRLPQLSRASVVIGSLVVVLALAAGIVGVRLYQKLTNNTVVAYFTQANALYVGDKVQIMGLPVGSIDKIEPAGDKMKVTFHYQNKYKVPANASAVILNPTLVASRNIQLEPPYRGGPVLADNAVIPVERTQVPTEWDELRDSVSHIIDELGPTPEQPKGPFGEVIEAFADGLAGKGKQINTTLNSLSQALNALNEGRGDFFAVVRSLALFVNALHQDDQQFVALNKNLAEFTDRLTHSDADLSNAIQQFDSLLAVARPFFAKNREVLTHDVNNLATVTTTLLQPDPLDGLETVLHIFPTLAANINQLYHPTHGGVVSLSAFTNFANPMEFICSSIQAGSRLGYQESAELCAQYLAPVLDAIKFNYFPFGLNVASTASTLPKEIAYSEPRLQPPNGYKDTTVPGIWVPDTPLSHRNTQPGWVVAPGMQGVQVGPITQGLLTPESLAELMGGPDIAPPSSGLQTPPGPPNAYDEYPVLPPIGLQAPQVPIPPPPPGPDVIPGPVPPTPAPVGAPLPAEAGGGQ”, the protein production entry is given as “failed”.
